This is an account of results in patent US20090083877A1, “Transcription Factors, DNA and Methods for Introduction of Value-Added Seed Traits and Stress Tolerance” (priority 2002, published 2009).

For test [1], the system named is ABA-inducible wheat Em promoter. The test is described as follows: Em-GUS reporter transactivation in transiently transformed maize mesophyll protoplasts. It counts as cell-based. The conditions noted are these: for Transactivation of Em-GUS expression by overexpressed effector: effector overexpressed alone. As to the method:
Plant Materials. Maize mesophyll protoplasts were isolated from 20-hr illuminated leaves of 10 day old maize seedlings that had been kept in the dark at 25° C. The middle part of the second leaves (about 6 cm in length) was cut into 0.5 mm strips with a razor blade and digested in an enzyme solution containing 1% (w/v) cellulose RS, 0.1% (w/v) macerozyme R10 (Yakult Honsha, Nishinomiya, Japan), 0.6 M mannitol, 10 mM MES (pH 5.7), 1 mM CaCl2, 1 mM MgCl2, 10 mM β-mercaptoethanol, and 0.1% BSA (w/v) for 3 hr at room temperature. Protoplasts were released by shaking on a rotary shaker at 80 rpm for 10 min and were filtered through a 70 μm nylon filter. Protoplasts were collected by centrifugation at 100 g for 2 min, washed in cold 0.6 M mannitol solution, centrifuged, and resuspended at 2×10^6/mL in cold 0.6 M mannitol. Electroporation conditions were 400 V/cm, 200 μF, 10 msec, and two pulses with a Biorad GenePulser apparatus. Each sample contained 5×10^4 protoplasts and about 50 μg DNA in 0.3 mL of 0.6 M mannitol and 20 mM KCl.
(§1) Plasmid pBM207 contains the wheat (Triticum aestivum) Early Methionine-labeled (Em) promoter driving the expression of GUS, encoded by uida from Escherichia coli. Plasmid pDH359 contains ABI5 cDNA driven by Ubiquitin promoter. Plasmid pCR349.13S contains the 35S promoter driving the VP1 sense cDNA. Plasmid pDirect2.6 contains the Ubi promoter in a reverse orientation and was used as control construct to balance the total amount of input plasmid DNA between various treatments. Plasmid pAHC 18 contains the Ubi promoter driving firefly (Photinus pyralis) LUC cDNA and was included in transformations to provide an internal reference for non-ABA-inducible transient transcription in reporter enzyme assays. ABF1-ABF4, AREB3, and DPBF4 were amplified by PCR using gene-specific primers from an Arabidopsis cDNA library (Minet et al. Plant J. 2:417 (1992)) and were cloned into plasmid pDH349 (Gampala et al. J. Biol. Chem. 277: 1689 (2002)) containing the maize Ubiquitin promoter and nopaline synthase 3′ termination signals.
The values in FIG. 2 are the average (±S.E.M.) of four replicate transformations.
To test the involvement of ABI3-Like B3 domain transcription factors in ABA signaling, ABA-inducible reporter gene transactivation by the B3 domain-containing RAV2 was assayed in maize mesophyll protoplasts transiently co-transformed with a full length cDNA under transcriptional control of the Ubiquitin promoter. Activation of Em-GUS reporter gene expression by RAV2, relative to non-ABA inducible Ubi-LUC reference reporter as internal control, and functional interactions of RAV2 with VP1, ABI5, and the ABI5-Like ABF3 were compared in protoplasts treated with or without 100 uM ABA (see FIG. 3).

For test [2] the test system is unchanged. The experiment in a line: Em-GUS reporter transactivation in transiently transformed rice protoplasts. It counts as cell-based, Oryza sativa. The conditions noted are these: for Synergy with exogenous ABA on Em-GUS expression: 100 μM ABA, 16 h; for Transactivation of Em-GUS expression by overexpressed effector: effector overexpressed alone, average of four replicate transformations. As to the method:
Embryonic rice (Oryza sativa) callus cultures (Radon 6 from the International Rice Research Institute, Los Bafios, Phillipines) were obtained. Embryonic rice callus cultures were grown as suspensions in liquid culture as well as on phytagel plates containing MS medium supplemented with 2.0 mg/L 2,4-D. Cultures were propagated and digested for making protoplasts as previously described except that 10 mM HEPES (Sigma, St. Louis, Mo., USA), pH 5.6, was substituted for phosphate in the Krens'F medium, and 2% (weight/volume; w/v) cellulase YC, 0.35% (w/v) macerozyme, and 0.1% (w/v) pectolyase Y23 were used for overnight digestion (Karlan Research Products, Santa Rosa, CA, USA). Protoplasts were transformed with various mixtures of DNA reporter and effector constructs using polyethylene glycol precipitation. Transformed protoplasts were incubated with or without 100 μM ABA for 16 h in the dark in Krens solution before quantifying β-glucuronidase (GUS) and luciferase (LUC) reporter enzyme activities as previously described. ABA was dissolved and stored in absolute ethanol at −20° C. as a 0.1 M stock solution. Prior to use, required dilutions of ABA were made in Krens solution, and control samples received the same volume of solvent as in ABA treatments.
as §1
Simultaneously, it has been shown that ABF2, ABF3 and ABF4 overexpression in transgenic Arabidopsis results in ABA hypersensitivity and other ABA-associated phenotypes such as altered ABA-inducible gene expression and glucose signaling, reduced transpiration, and enhanced drought tolerance. The functional roles of the ABI5-like family members ABF1-ABF4 in regulation of ABA-inducible gene expression in rice protoplasts were tested and the results are shown in FIG. 1. […] Protoplasts were transformed with Em-GUS and a “dummy” effector construct (pD2.6 containing only the Ubiquitin promoter used to drive effector expression) or co-transformed with a Ubi-ABF construct and treated with or without 100 μM ABA. The values shown in FIG. 1A are the average (±S.E.M.) of four replicate transformations.
Rice protoplasts were transformed with either Em-GUS alone or in pairwise combinations of Ubi-ABF3, Ubi-ABI5, or 35S-VP1. The values in FIG. 1B are the average (±S.E.M.) of four replicate transformations. ABF3 is a related member of the ABI5-family of bZIP transcription factors.

“Also recorded” adds a separate entry of the source. Like-named read-outs stand apart in the source and are kept apart here.

Regarding “ABI5: Arabidopsis basic leucine zipper (bZIP) domain transcription factor, At2g36270, SEQ ID NO 5 and 6”, in test [1], the “Synergy with co-transformed VP1 on Em-GUS expression” value (shortened to “Synergy with co-transformed VP1”) is listed as “can synergize with co-transformed VP1” and the “Synergy with exogenous ABA on Em-GUS expression” value (shortened to “Synergy with exogenous ABA”) was “synergize with exogenous ABA”. In addition, the “Transactivation of Em-GUS expression by overexpressed effector” value (from here on “Transactivation of Em-GUS expression”) in test [1] (maize mesophyll protoplasts) was “sufficient for transactivation of the Em promoter; also recorded: sufficient for specific Em-GUS transactivation; also recorded: sufficient to transactivate Em-GUS expression”. In test [2], the “Synergy with exogenous ABA” value is “acted in synergy with ABA” and the “Transactivation of Em-GUS expression” value was “transactivated the Em promoter”.

B1: AREB3: Arabidopsis ABI5-like bZIP transcription factor, At3g56850 (protein, listed as Arabidopsis thaliana)
chain: MDSQRGIVEQAKSQSLNRQSSLYSLTLDEVQNHLGSSGKALGSMNLDELLKSVCSVEANQPSSMAVNGGAAAQEGLSRQGSLTLPRDLSKKTVDEVWKDIQQNKNGGSAHERRDKQPTLGEMTLEDLLLKAGVVTETIPGSNHDGPVGGGSAGSGAGLGQNITQVGPWIQYHQLPSMPQPQAFMPYPVSDMQAMVSQSSLMGGLSDTQTPGRKRVASGEVVEKTVERRQKRMIKNRESAARSRARKQAYTHELEIKVSRLEEENERLRKQKEVEKILPSVPPPDPKRQLRRTSSAPF
As to B1, in test [1], the “Synergy with co-transformed VP1” value was “no functional interactions with VP1 and not”; the “Synergy with exogenous ABA” value is given as “synergize with exogenous ABA”. Besides, the “Transactivation of Em-GUS expression” value in test [1] (maize mesophyll protoplasts) is recorded as “sufficient to transactivate Em-GUS expression”.

B2: DPBF4/EEL: Arabidopsis ABI5-like bZIP transcription factor, Enhanced Em Level, At2g41070 (protein, listed as Arabidopsis thaliana)
chain: MGSIRGNIEEPISQSLTRQNSLYSLKLHEVQTHLGSSGKPLGSMNLDELLKTVLPPAEEGLVRQGSLTLPRDLSKKTVDEVWRDIQQDKNGNGTSTTTTHKQPTLGEITLEDLLLRAGVVTETVVPQENVVNIASNGQWVEYHHQPQQQQGFMTYPVCEMQDMVMMGGLSDTPQAPGRKRVAGEIVEKTVERRQKRMIKNRESAARSRARKQAYTHELEIKVSRLEEENEKLRRLKEVEKILPSEPPPDPKWKLRRTNSASL
In the case of B2, the “Synergy with co-transformed VP1” value in test [1] (maize mesophyll protoplasts, co-transformed with VP1) was “some antagonism of ABA inducible Em-GUS expression and not”. Moreover, the “Transactivation of Em-GUS expression” value in test [1] (maize mesophyll protoplasts) was “sufficient to transactivate Em-GUS expression”. Further, the “Synergy with exogenous ABA” value in test [1] (maize mesophyll protoplasts, exogenous ABA) is “synergize with exogenous ABA”.

B3: RAV2: Arabidopsis ABI3-Like B3 domain transcription factor, At1g68840, SEQ ID NO 3 and 4 (protein, listed as Arabidopsis thaliana)
chain: MDSSCIDEISSSTSESFSATTAKKLSPPPAAALRLYRMGSGGSSVVLDPENGLETESRKLPSSKYKGVVPQPNGRWGAQIYEKHQRVWLGTFNEQEEAARSYDIAACRFRGRDAVVNFKNVLEDGDLAFLEAHSKAEIVDMLRKHTYADELEQNNKRQLFLSVDANGKRNGSSTTQNDKVLKTREVLFEKAVTPSDVGKLNRLVIPKQHAEKHFPLPSPSPAVTKGVLINFEDVNGKVWRFRYSYWNSSQSYVLTKGWSRFVKEKNLRAGDVVTFERSTGLERQLYIDWKVRSGPRENPVQVVVRLFGVDIFNVTTVKPNDVVAVCGGKRSRDVDDMFALRCSKKQAIINAL
Take B3: in test [1], the “Effect of ABA on synergism with VP1” value was “enhanced by ABA”, the “Synergy with ABF3 on Em-GUS expression” value is recorded as “synergizes; also recorded: interacts synergistically”, the “Synergy with ABI5 on Em-GUS expression” value was “synergizes; also recorded: interacts synergistically” and the “Synergy with VP1 on Em-GUS expression” value is “act synergistically to activate Em-GUS expression; also recorded: interacts synergistically”. For the same molecule, the “Effect of co-transformed ABA-INSENSITIVE-1 dominant negative allele on transactivation” value in test [1] (maize mesophyll protoplasts, data not shown) is “antagonized”. Further, the “Transactivation of Em-GUS expression” value in test [1] (maize mesophyll protoplasts) is listed as “sufficient for specific Em-GUS transactivation”.

B4: VP1: maize VIVIPAROUS-1 B3-domain transcription factor, SEQ ID NO 1 and 2, expressed from 35S promoter (protein)
chain: MEASSGSSPPHSQENPPEHGGDMGGAPAEEIGGEAADDFMFAEDTFPSLPDFPCLSSPSSSTFSSNSSSNSSSAYTNTAGRAGGEPSEPASAGEGFDALDDIDQLLDFASLSMPWDSEPFPGVSMMLENAMSAPPQPVGDGMSEEKAVPEGTTGGEEACMDASEGEELPRFFMEWLTSNRENISAEDLRGIRLRRSTIEAAAARLGGGRQGTMQLLKLILTWVQNHHLQRKRPRDVMEEEAGLHVQLPSPVANPPGYEFPAGGQDMAAGGGTSWMPHQQAFTPPAAYGGDAVYPSAAGQQYSFHQGPSTSSVVVNSQPFSPPPVGDMHGANMAWPQQYVPFPPPGASTGSYPMPQPFSPGFGGQYAGAGAGHLSVAPQRMAGVEASATKEARKKRMARQRRLSCLQQQRSQQLSLGQIQTSVHLQEPSPRSTHSGPVTPSAGGWGFWSPSSQQQVQNPLSKSNSSRAPPSSLEAAAAAPQTKPAPAGARQDDIHHRLAAASDKRQGAKADKNLRFLLQKVLKQSDVGSLGRIVLPKKEAEVHLPELKTRDGISIPMEDIGTSRVWNMRYRFWPNNKSRMYLLENTGEFVRSNELQEGDFIVIYSDVKSGKYLIRGVKVRPPPAQEQGSGSSGGGKHRPLCPAGPERAAAAGAPEDAVVDGVSGACKGRSPEGVRRVRQQGAGAMSQMAVSI
modifications: Zea mays
Regarding B4, in test [2], the “Synergy with exogenous ABA” value is “acted in synergy with ABA” and the “Transactivation of Em-GUS expression” value was “transactivated the Em promoter”.
